These results are taken from patent US20150037312A1 (University of Washington, published 2015).

As a reminder, the Kd is the concentration at which binding is half-saturated. The low end stands for a tighter complex, the high end for a looser complex.

The assay concerns the target T1, Rituximab (human IgG1), biotinylated (human).
T1 construct: Whole IgG; In the first screen it was oligomerized with streptavidin-phycoerythrin; in SPR it was captured on a streptavidin chip; also called Rituxan; IgG1 Rituxan
Kind of assay: titration of biotinylated Rituxan on yeast displaying the clone; pH 8 implied.

Protocol: We then determined the Kd of exemplary isolated clones for IgG at different pHs. Measurements were taken via titrations of biotinylated Rituxan (Rituximab) using yeast surface display as discussed in the materials and methods sections.
Yeast cells (EBY100) containing plasmid encoding the designs, were grown overnight at 30° C. in SDCAA medium. For induction, they were sub-cultured into SGCAA to achieve an O.D. of 1, and grown at 22° C. for 16-20 h. Cells were washed once with PBS containing 0.5% BSA (PBS-BSA), before adding 700 nM biotinylated IgG (Rituximab) into a total volume of 50 μl of the same buffer. […] Cells were washed once with ice cold PBS-BSA immediately before measuring their fluorescence via an Accuri C6 flow cytometer, data was analyzed using the FlowJo 7.6.1 and 8.8.7 software.

B1: FcB6.1 (designed binder)
chain: PEEALIVVDMQRDFMPGGALPVPEGDKIIPKVNEYIRKFKEKGALIVATRDWHPENHISFRERGGPWPRHCVQNTPGAEFVVDLPEDAVIISKATEPDKEAYSGFEGTDLAKILRGNGVKRVYICGVATEYCVSRTAVDALKHGFEVYLLRDAVKGIKPTFEQQSFFYMSLKGIKIVQF
notes: Clone from the pH 8 selection of the focused library; also called Fc24.47
B1 came in with a Kd of approximately 2 nM.
